B1: SPACA3 (parent)
chain: FTSGFNAAALDYEADGSTNNGIFQ

Variants of: B1
Test: protein stability index of a GFP-peptide fusion (GPS, HEK-293T) (PSI 1-6); higher = more stable
Conditions: c terminus: a fixed tail appended
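Also: lentivirally expressed fusions sorted by FACS into six bins by GFP to DsRed ratio, PSI derived from sequencing read proportions per bin multiplied by bin number.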

Variant	protein stability index
FTSGFNAAALKYEADGSTNNGIFQ [D11K]	2.43
FTSGFNAAALLYEADGSTNNGIFQ [D11L]	1.93
FTSGFNAAALVYEADGSTNNGIFQ [D11V]	2.6
FTSGFNAAALHYEADGSTNNGIFQ [D11H]	2.04
FTSGFNAAALCYEADGSTNNGIFQ [D11C]	2.03
FTSGFNAAALWYEADGSTNNGIFQ [D11W]	1.4
FTSGFNAAALYYEADGSTNNGIFQ [D11Y]	2.66
FTSGFNAAALNYEADGSTNNGIFQ [D11N]	1.57
FTSGFNAAALIYEADGSTNNGIFQ [D11I]	2.27
FTSGFNAAALPYEADGSTNNGIFQ [D11P]	1.84
FTSGFNAAALMYEADGSTNNGIFQ [D11M]	1.98
FTSGFNAAALTYEADGSTNNGIFQ [D11T]	2
FTSGFNAAALEYEADGSTNNGIFQ [D11E]	1.79
FTSGFNAAALQYEADGSTNNGIFQ [D11Q]	2.01
FTSGFNAAALFYEADGSTNNGIFQ [D11F]	3.1
FTSGFNAAALSYEADGSTNNGIFQ [D11S]	1.5
FTSGFNAAALGYEADGSTNNGIFQ [D11G]	2.46
FTSGFNAAALRYEADGSTNNGIFQ [D11R]	2.2
FTSGFNAAALDYWADGSTNNGIFQ [E13W]	3.11
FTSGFNAAALDYAADGSTNNGIFQ [E13A]	1.76
FTSGFNAAALDYHADGSTNNGIFQ [E13H]	2.24
FTSGFNAAALDYLADGSTNNGIFQ [E13L]	1.72
FTSGFNAAALDYMADGSTNNGIFQ [E13M]	1.82
FTSGFNAAALDYRADGSTNNGIFQ [E13R]	1.66

Variant	protein stability index
FTSGFNAAALDYFADGSTNNGIFQ [E13F]	2.46
FTSGFNAAALDYIADGSTNNGIFQ [E13I]	1.36
FTSGFNAAALDYNADGSTNNGIFQ [E13N]	2.09
FTSGFNAAALDYTADGSTNNGIFQ [E13T]	2.21
FTSGFNAAALDYVADGSTNNGIFQ [E13V]	2.08
FTSGFNAAALDYSADGSTNNGIFQ [E13S]	1.78
FTSGFNAAALDYQADGSTNNGIFQ [E13Q]	1.56
FTSGFNAAALDYYADGSTNNGIFQ [E13Y]	1.61
FTSGFNAAALDYKADGSTNNGIFQ [E13K]	2.08
FTSGFNAAALDYGADGSTNNGIFQ [E13G]	1.44
FTSGFNAAALDYCADGSTNNGIFQ [E13C]	1.87
FTSGFNAAALDYDADGSTNNGIFQ [E13D]	2.32
FTSGFNAAALDYPADGSTNNGIFQ [E13P]	1.55
FTSGFNAAALDYEAHGSTNNGIFQ [D15H]	1.74
FTSGFNAAALDYEAQGSTNNGIFQ [D15Q]	1.66
FTSGFNAAALDYEASGSTNNGIFQ [D15S]	2
FTSGFNAAALDYEANGSTNNGIFQ [D15N]	1.86
FTSGFNAAALDYEAIGSTNNGIFQ [D15I]	2.12
FTSGFNAAALDYEACGSTNNGIFQ [D15C]	2.27
FTSGFNAAALDYEARGSTNNGIFQ [D15R]	1.96
FTSGFNAAALDYEAFGSTNNGIFQ [D15F]	2.42
FTSGFNAAALDYEAVGSTNNGIFQ [D15V]	1.43
FTSGFNAAALDYEAPGSTNNGIFQ [D15P]	1.64
FTSGFNAAALDYEAYGSTNNGIFQ [D15Y]	2.47

Variant	protein stability index
FTSGFNAAALDYEAWGSTNNGIFQ [D15W]	2.46
FTSGFNAAALDYEATGSTNNGIFQ [D15T]	1.98
FTSGFNAAALDYEAAGSTNNGIFQ [D15A]	2.11
FTSGFNAAALDYEAGGSTNNGIFQ [D15G]	1.68
FTSGFNAAALDYEAEGSTNNGIFQ [D15E]	2.26
FTSGFNAAALDYEAKGSTNNGIFQ [D15K]	1.65
FTSGFNAAALDYEALGSTNNGIFQ [D15L]	1.58
FTSGFNAAALDYEAMGSTNNGIFQ [D15M]	1.63
FTSGFNAAALDNEADGSTNNGIFQ [Y12N]	2.2
FTSGFNAAALDIEADGSTNNGIFQ [Y12I]	2.05
FTSGFNAAALDMEADGSTNNGIFQ [Y12M]	1.83
FTSGFNAAALDFEADGSTNNGIFQ [Y12F]	1.9
FTSGFNAAALDGEADGSTNNGIFQ [Y12G]	2.22
FTSGFNAAALDQEADGSTNNGIFQ [Y12Q]	2.25
FTSGFNAAALDWEADGSTNNGIFQ [Y12W]	1.39
FTSGFNAAALDREADGSTNNGIFQ [Y12R]	1.78
FTSGFNAAALDAEADGSTNNGIFQ [Y12A]	2.09
FTSGFNAAALDPEADGSTNNGIFQ [Y12P]	2.09
FTSGFNAAALDCEADGSTNNGIFQ [Y12C]	2.28
FTSGFNAAALDVEADGSTNNGIFQ [Y12V]	2.34
FTSGFNAAALDDEADGSTNNGIFQ [Y12D]	2.3
FTSGFNAAALDTEADGSTNNGIFQ [Y12T]	2.41
FTSGFNAAALDKEADGSTNNGIFQ [Y12K]	2.04
FTSGFNAAALDLEADGSTNNGIFQ [Y12L]	1.74

Variant	protein stability index
FTSGFNAAALDEEADGSTNNGIFQ [Y12E]	2.7
FTSGFNAAALDSEADGSTNNGIFQ [Y12S]	1.93
FTSGFNAAALDHEADGSTNNGIFQ [Y12H]	2.04
FTSGFNAAALDYEADGSMNNGIFQ [T18M]	1.95
FTSGFNAAALDYEADGSDNNGIFQ [T18D]	2.06
FTSGFNAAALDYEADGSVNNGIFQ [T18V]	1.5
FTSGFNAAALDYEADGSNNNGIFQ [T18N]	1.7
FTSGFNAAALDYEADGSWNNGIFQ [T18W]	1.59
FTSGFNAAALDYEADGSYNNGIFQ [T18Y]	2.02
FTSGFNAAALDYEADGSINNGIFQ [T18I]	2.14
FTSGFNAAALDYEADGSLNNGIFQ [T18L]	2.07
FTSGFNAAALDYEADGSPNNGIFQ [T18P]	1.83
FTSGFNAAALDYEADGSANNGIFQ [T18A]	1.87
FTSGFNAAALDYEADGSFNNGIFQ [T18F]	1.78
FTSGFNAAALDYEADGSCNNGIFQ [T18C]	2
FTSGFNAAALDYEADGSQNNGIFQ [T18Q]	1.82
FTSGFNAAALDYEADGSRNNGIFQ [T18R]	2.02
FTSGFNAAALDYEADGSSNNGIFQ [T18S]	2.08
FTSGFNAAALDYEADGSGNNGIFQ [T18G]	2.31
FTSGFNAAALDYEADGSENNGIFQ [T18E]	2.27
FTSGFNAAALDYEADGSKNNGIFQ [T18K]	2.78
FTSGFNAAALDYEADGSHNNGIFQ [T18H]	1.83
FTSGFNAAALDYEADGSTNHGIFQ [N20H]	1.75
FTSGFNAAALDYEADGSTNKGIFQ [N20K]	1.98

Variant	protein stability index
FTSGFNAAALDYEADGSTNLGIFQ [N20L]	2.04
FTSGFNAAALDYEADGSTNEGIFQ [N20E]	2.21
FTSGFNAAALDYEADGSTNQGIFQ [N20Q]	1.84
FTSGFNAAALDYEADGSTNMGIFQ [N20M]	1.87
FTSGFNAAALDYEADGSTNCGIFQ [N20C]	2.33
FTSGFNAAALDYEADGSTNVGIFQ [N20V]	2
FTSGFNAAALDYEADGSTNPGIFQ [N20P]	2.28
FTSGFNAAALDYEADGSTNTGIFQ [N20T]	1.93
FTSGFNAAALDYEADGSTNIGIFQ [N20I]	1.9
FTSGFNAAALDYEADGSTNRGIFQ [N20R]	1.66
FTSGFNAAALDYEADGSTNWGIFQ [N20W]	1.43
FTSGFNAAALDYEADGSTNAGIFQ [N20A]	2.31
FTSGFNAAALDYEADGSTNFGIFQ [N20F]	2.03
FTSGFNAAALDYEADGSTNGGIFQ [N20G]	1.96
FTSGFNAAALDYEADGSTNSGIFQ [N20S]	2.15
FTSGFNAAALDYEADGSTNDGIFQ [N20D]	2.51
FTSGFNAAALDYEWDGSTNNGIFQ [A14W]	1.94
FTSGFNAAALDYELDGSTNNGIFQ [A14L]	1.8
FTSGFNAAALDYEYDGSTNNGIFQ [A14Y]	2.09
FTSGFNAAALDYEVDGSTNNGIFQ [A14V]	2.17
FTSGFNAAALDYEGDGSTNNGIFQ [A14G]	1.76
FTSGFNAAALDYECDGSTNNGIFQ [A14C]	2.37
FTSGFNAAALDYEFDGSTNNGIFQ [A14F]	2.11
FTSGFNAAALDYETDGSTNNGIFQ [A14T]	1.96

Variant	protein stability index
FTSGFNAAALDYEKDGSTNNGIFQ [A14K]	2.5
FTSGFNAAALDYEMDGSTNNGIFQ [A14M]	2.02
FTSGFNAAALDYEQDGSTNNGIFQ [A14Q]	2.1
FTSGFNAAALDYEPDGSTNNGIFQ [A14P]	2
FTSGFNAAALDYEEDGSTNNGIFQ [A14E]	2.14
FTSGFNAAALDYESDGSTNNGIFQ [A14S]	1.95
FTSGFNAAALDYENDGSTNNGIFQ [A14N]	1.72
FTSGFNAAALDYEHDGSTNNGIFQ [A14H]	2.09
FTSGFNAAALDYERDGSTNNGIFQ [A14R]	2.27
FTSGFNAAALDYEIDGSTNNGIFQ [A14I]	2.05
FTSGFNAAALDYEDDGSTNNGIFQ [A14D]	2.13
FTSGFNAAALDYEADGSTANGIFQ [N19A]	1.67
FTSGFNAAALDYEADGSTLNGIFQ [N19L]	1.78
FTSGFNAAALDYEADGSTENGIFQ [N19E]	2.23
FTSGFNAAALDYEADGSTWNGIFQ [N19W]	1.55
FTSGFNAAALDYEADGSTRNGIFQ [N19R]	1.66
FTSGFNAAALDYEADGSTQNGIFQ [N19Q]	2.44
FTSGFNAAALDYEADGSTINGIFQ [N19I]	1.79
FTSGFNAAALDYEADGSTSNGIFQ [N19S]	2.38
FTSGFNAAALDYEADGSTDNGIFQ [N19D]	2.38
FTSGFNAAALDYEADGSTYNGIFQ [N19Y]	1.83
FTSGFNAAALDYEADGSTVNGIFQ [N19V]	1.76
FTSGFNAAALDYEADGSTCNGIFQ [N19C]	2.31
FTSGFNAAALDYEADGSTTNGIFQ [N19T]	1.84

Variant	protein stability index
FTSGFNAAALDYEADGSTMNGIFQ [N19M]	2.21
FTSGFNAAALDYEADGSTPNGIFQ [N19P]	2.21
FTSGFNAAALDYEADGSTHNGIFQ [N19H]	2.52
FTSGFNAAALDYEADGSTGNGIFQ [N19G]	2.03
FTSGFNAAALDYEADGSTKNGIFQ [N19K]	1.63
FTSGFNAAALDYEADGSTFNGIFQ [N19F]	2.24
FTSGFNAAALDYEADVSTNNGIFQ [G16V]	1.78
FTSGFNAAALDYEADLSTNNGIFQ [G16L]	1.72
FTSGFNAAALDYEADQSTNNGIFQ [G16Q]	1.9
FTSGFNAAALDYEADHSTNNGIFQ [G16H]	2.19
FTSGFNAAALDYEADESTNNGIFQ [G16E]	2.31
FTSGFNAAALDYEADASTNNGIFQ [G16A]	2.3
FTSGFNAAALDYEADPSTNNGIFQ [G16P]	1.97
FTSGFNAAALDYEADFSTNNGIFQ [G16F]	1.96
FTSGFNAAALDYEADNSTNNGIFQ [G16N]	2.33
FTSGFNAAALDYEADRSTNNGIFQ [G16R]	1.87
FTSGFNAAALDYEADSSTNNGIFQ [G16S]	1.83
FTSGFNAAALDYEADTSTNNGIFQ [G16T]	2.26
FTSGFNAAALDYEADCSTNNGIFQ [G16C]	1.49
FTSGFNAAALDYEADDSTNNGIFQ [G16D]	2.31
FTSGFNAAALDYEADWSTNNGIFQ [G16W]	1.15
FTSGFNAAALDYEADMSTNNGIFQ [G16M]	2
FTSGFNAAALDYEADKSTNNGIFQ [G16K]	2.26
FTSGFNAAALDYEADYSTNNGIFQ [G16Y]	1.66

Variant	protein stability index
FTSGFNAAALDYEADISTNNGIFQ [G16I]	1.92
FTSGFNAAALDYEADGVTNNGIFQ [S17V]	2.06
FTSGFNAAALDYEADGETNNGIFQ [S17E]	2.13
FTSGFNAAALDYEADGDTNNGIFQ [S17D]	2.21
FTSGFNAAALDYEADGRTNNGIFQ [S17R]	1.95
FTSGFNAAALDYEADGPTNNGIFQ [S17P]	2.05
FTSGFNAAALDYEADGITNNGIFQ [S17I]	1.96
FTSGFNAAALDYEADGHTNNGIFQ [S17H]	2.31
FTSGFNAAALDYEADGGTNNGIFQ [S17G]	2.05
FTSGFNAAALDYEADGMTNNGIFQ [S17M]	1.48
FTSGFNAAALDYEADGNTNNGIFQ [S17N]	2.21
FTSGFNAAALDYEADGCTNNGIFQ [S17C]	1.94
FTSGFNAAALDYEADGWTNNGIFQ [S17W]	2.1
FTSGFNAAALDYEADGFTNNGIFQ [S17F]	1.74
FTSGFNAAALDYEADGATNNGIFQ [S17A]	2.1
FTSGFNAAALDYEADGTTNNGIFQ [S17T]	2.19
FTSGFNAAALDYEADGYTNNGIFQ [S17Y]	1.93
FTSGFNAAALDYEADGLTNNGIFQ [S17L]	1.71
FTSGFNAAALDYEADGQTNNGIFQ [S17Q]	2.35
FTSGFNAAALDYEADGKTNNGIFQ [S17K]	1.87

— the supplement of paper PMC10567573
